The values that follow come from a protein production outcome set (Wang et al. 2014).

The nature of this data set: label from the status in PepcDB records.
For “MAELIHSTIGRLLEQTADAYPDRDAVVYPDRNIRYTYAQFDSLCRQTAKGLMRMGIGKGDHVAIWASNISEWLAVQFATAKIGAVLVTVNTNYQAHELDYLLKQSDAAALIIMDSYRGTSYPDIVNSLIPELQEAKPGQLKSERYPFLKTLIYIGNKRLSGMYHWDDTEILAKTVTDAELEERMNSLDKDNVINMQYTSGTTGFPKGVMLTHFNVINNAANIAECMALTSQDRMCIPVPFFHCFGCVLGVLACVSVGAAMIPVQEFDPVTVLKTVEKEKCTVLHGVPTMFIAELHHPDFDAYDLSTLRTGIMAGSPCPSEVMKAVIERMGMKDITIAYGQTEASPVITQTRANDSFIRRVETTGRALPHTEVKIVEPGTCQEVQRGMQGELCTRGYHVMKGYYKDKDATRKAINHDGWLFTGDLAVMDEDGYCRITGRLKDMLIRGGENIYPREIEEFLYQHPAVLDVQVVGVPDAKFGEEAAAWIKLKDGKSVSPDELKAYCKGKIARHKIPRYVIFTDDYPMTASGKIQKY”, the protein production entry is listed as “not failed”.
As for “MSNAIEINELHWLLAVTQNIDVGIVVLDLNYRVTVWNTFMENRSGVVPYVAIDKTFFELFPEVNRQWLSKKIDNVVTLGTPAFTIWEQRPYLVRFKNYQPITGHEEFMYQNTTLFPLRSTTGAISHVCLVIYDVTDVAANRNQLQAANDKLQQLSGAEQK”, the protein production entry is on record as “not failed”.
In the case of “MELASPISSSFLEAFSRLSLERYSFLSIATSTIPSAAFLTTGFSSFNTSRAKLNASSMISGSLVLTTISFSTLRAETFFFSDFPFRMFLIQENIILATLIILAPRVATPSAAYSFIGSGLFSTIPINISESLVLISSGNSMKVTMAFIVSTACKTTVSSLSSNSLIRSGITSFTSSIPSSFFIASFFIMYRVPFFIKGSFSCNAFLSIDILFSLSSSTIWRAFLTLHPFKFSIYSS” it was “failed”.
In the case of “SVATQHLFARQKNTQLTLHVAHSFCSQWLMPRLADFHRQHPDVVVKISTTANTVPNASAIADVEIINGYGDWQSEQAVQLTQEN” it was “failed”; in that of “LEIKQLLNIYRDLQLGHFCAFYQPQKHIDSGGVVAFEALARRVIGKGLYEMPDRFFPILEKYHLIPTLTEVMVRDILTFLMTEDAVLQDITIGVNIPGKMLTDGSFYRLLLSVAEEKQAQHALHRLSVEITEHDLIADFDAAKHEIYKLKSLGIRCALDDFGTGYSGYEYLCEIPFDVVKIDGRYIQSLGKAESSTVILQSMISSIKSLSMQVIAEWVDSDQQYQILQEMGCDLVQGYLVSPAISPQQVLNYLHNKLSP”, “failed”.
In the case of “MIETTKGGSGSYPIKTIVVLVQENRSFDHTLGWFKELNREIDGVTKSDPKSNTVSSSDTNSLRVVFGDQSQYVNPDPGHSIQDIYEQVFGKPWDSGKPDPNPGHPNMSGFAQNAERNKKGMSSAVMNGFKPNALPVYKELVQNFAICDRWFASVPASTQPNRLYVHSATSHGATSNDKKLLLEGFPQKTIFESLDEAGFSFGIYYQFPPSTLFYRNLRKLKYLTHFHQYGIQFKKDCKEGKLPNYVVVEQRWFDLLSTPANDDHPSHDVSEGQKLVKEVYEALRSSPQWNEILFIITYDEHGGFYDHVPTPVDGVPNPDGILGPPPYNFEFNRLGVRVPTFFISPWIEPGTVIHGPNGPYPRSQYEHSSIPATVKTIFKLKDFLSKRDSWAGTFESVITRDSPRQDCPETLSTPIKLRGTMAKENAQLSEFQEDLVIMAAGLKGDYKNEELIHKLCKETCVADASKYVTNAFEKFLEESRKARDRGCDENDIVYCVDDDDDHVVIPPQSHSEASNAAAQPKTQTSFFNKLFSCFIRHD”, the protein production entry was “failed”.
“MSRLEGKIAIVTGASSGIGRAAAALCTRGGKGRRYRPQRECTCGAYTRSPEGAVRRQRLPATWATKPCEALVELAVRRFGGLDTAFNNAGARCDGRDLVARRRLARDARYQSDAPSWRRNIRFRQLRHWAAVRSPTSSFVGHTAGFAGVAPYAASKAGDRTGAGAGGRTRRARHSRERAAAAAPTRLPISRTCRERRPRRAVSEGLHALKRIARPEEIAEAALYLAGRCLRDRRCAAGRRRRFGDEGV”: the protein production result is given as “not failed”.
For “MDMIKPDFQQIRRDKFRVEQMNDFPNTWTQQQHQNIRIPNNLDLIGILQNQISVPVQTDLYQDSAATFMNMPQSIHRDPQGPSNWRISDLSQPSTVNHGYDQAGIRPNNVADLLSDHFSSRNQILDRPLYVGRDSIPQSSMIRRSEVSCLDDNQKGCVTVACSGTGNEILRSSYDQGSSSGSYRGEFSFLPSLENQSVAHNASNWNHGPVNVTATSHTNSKKGFPLSLLSDIPPSRDVGNAAVLSTMNIHGPLGPFTGYASILKSSRFLEPAQKMLEEFCISYASKIISRSESTSMEDDDDDDDNLSGFSSSSEPLEPKNRLKKAKLLFLQEEVCKWYKLYNHQLQTVMSSFNTVAGLNTATPYISLALKRTSRSFKALRTAIAEHVKQISSHSSNGNNNNRFQKRQRSLIGNNVGFESQQQHIWRPQRGLPERAVAVLRAWLFDHFLHPYPTDSDKQMLATQTGLSRNQVSNWFINARVRLWKPMVEEIHTLETKAIKNADTSHNIEPSNRPNTVSSPSHEQTLTGLSGTKRSRLEYMDMVGFNRGNVSLTLELRRGVDNVIQTQTQDHQFGTGSQMFHDFVG” the value was “failed”; for “MKTIAVLLTALLLATGCGNKESTGETASDEPEIVMMDESTSVGELPSILKEGLSNKEQDELKKQIMPILDDGLTPEQRFLNLRKDAEAGNAEAQNSLGSMYFSGEAISRDAQGKVKDKDPETAAGWFFRAAEQGHAGAQFNLGLLYFSGEGVTRDTAKAVELFTKSAEQGNIDAQNNLGVIYLMGEGVKQNTDKAIEWFEKAAEQGNEEAIKNLEAVRASQQDSKEAADKQK”, “failed”; for “MTFLQRWQGLADNKICAFAWFVIRRFSEERVPQAAASMTFTTLLALVPVLTVMVAVASIFPVFDRWSDSFVSFVNQTIVPQGADMVFDYIDAFRDQANRLTAIGSVMLVVTSLMLIRTIDNAFNRIWRVNTQRPWMMQFLVYWALLTFGPLSLGVGISFMVGSVQDSVLSSGAQQWADALKTAARLAFMTLLLWGLYRFVPNRFVPARQAFVGALITAFCLETARFLFTWYMGNFDGYRSIYGAFAAVPFFLLWLNLLWTLVLGGAVLTSSLSYWQGEAFRRGFDSRGRFDDVLKILLLLDAAQKEGRTLSVQEFRRHINMGYDELGELLEKLARYGYIYSGRQGWVLKTGADSIELSELFKLFVYRPLPVERDHVNQAVDAVMTPCLQTLNMTLAEFDAQAKKQQQS”, “failed”.
For “MKHAKQIAEHATIQSFLNCYLRETGSGEWITEDKRIEDIFYHLFQRDTCSTYLCCRLSAQNITLYGEVIYKSPTDRHLFGEQFYYQMGDSNSVMKADYVTVITFLIKEMSINYGEGTNPAELMLRVIRSCQNIEEFTKERKEDTSALYGFHTSFIEAEQSLLFGHLTHPTPKSRQGILEWKSAMYSPELKGECQLHYFRAHKSIVNEKSLLLDSTTVILKEELRNDEMVSKEFISKYCNEDEYSLLPIHPLQAEWLLHQPYVQDWIEQGVLEYIGPTGKCYMATSSLRTLYHPDAKYMLKFSFPVKVTNSMRINKLKELESGLEGKAMLNTAIGEVLEKFPGFDFICDPAFITLNYGTQESGFEVIIRENPFYSEHADDATLIAGLVQDAIPGERTRLSNIIHRLADLESRSCEEVSLEWFRRYMNISLKPMVWMYLQYGVALEAHQQNSVVQLKDGYPVKYYFRDNQGFYFCNSMKEMLNNELAGIGERTGNLYDDYIVDERFRYYLIFNHMFGLINGFGTAGLIREEILLTELRTVLESFLPYNREPSTFLRELLEEDKLACKANLLTRFFDVDELSNPLEQAIYVQVQNPLVREVAVRS” the value was “failed”; for “ASASIKKVAATLADAAITDGIGDATKAKAALDKISDAGGLIEDIGATRAQFGANINRLEHTMTNLGNMVENTSAAKGRIM”, “failed”; for “QQKLAANVFKNSQDGVLIYDADGKLTLMNPAFTDIFGYQMSELSNIPMLTLFDGHHFTTSTSLITESIQRFGQWHGEVLEKDKYGAELPLYVKASKIIDTEQYGQNSYIFIFTNLS”, “failed”.
In the case of “MALKPTIYKFRIALSDMNNDYYDSKNLTIALHPSEKPQRMLARILAFCLNAQKDLEFTKGLSTTEEPDLWHVADDQSITHWIEIGEPEPDRIKKASRLAKQVKVYTYNTKAPVWWEKMSGKFSMLPVSVESFDYDAIDMICQHLDRGTNLSVMITGTSIFVDVNDQHVEVTVKELQSHDAP” it was “not failed”.
With “MSTDNLLQPKLIEATLGDYPVIQNMARFYVYDMSRYCGFISEEWTCPPDGLYESYDFKIYFTDPERKAFLIQIDNELAGFALLNKFGIQAVDWSMGEFFILAKFQGKGIGQSVAHQLWRTHPGEWEISVIPENIPALSFWRQAVMTYTL”, the protein production entry is listed as “not failed”.
For “MSLSSPNILLTRIDNRLVHGQVGVTWTSTIGANLLVVVDDVVANDDIQQKLMGITAETYGFGIRFFTIEKTINVIGKAAPHQKIFLICRTPQTVRKLVEGGIDLKDVNVGNMHFSEGKKQISSKVYVDDQDLTDLRFIKQRGVNVFIQDVPGDQKEQIPDEGHHHHHH” the value was “not failed”.
For “MHIRRDQYMNEYVWETCEELDKKIADRVRLIRKRRSISQEKLSKISNVSLGSIKRFETTGQISLLSLTKIAVALNIADDLRNIFTEIPYNSIEEVINERR” the value was “not failed”; for “GDFGRHSITSGGSGGGGFRQRGSSGSSSRHTERGYSSGRSGASSYNGREGGGSGFNRREVYGGGRDSSRYSSGSSASYGRTGGQSAGRFRSRSPVGNHRF”, “failed”.
For “MLGVILLYVGMVLMSNGLHRLEGIPDKSNVVMNIFTGGLGLILNIIVIAYGACTGQGAEWFYGSATGLLFAFTYLYSAINTIFDFDQRLYGWFSLFVAINTLPAGILCLTSGYGGNAWYGIIWFLWGVLWLTAFIEINLKKNLGKFVPYLAIFEGIVTAWIPGLLMLWGKW” the value was “failed”.
“MTPPIINLPQRLGRSRRLAYGAATAGAWMVYFYLWAPLATLIAWFFGLRSAYTELYLQHNALDPFALGSLPVIALMSAITTVGWAEYNRLRFVNADKRRRPRTVAEPDVDQRLGATEQLGTLLRHSRISSVAMDKFARPVAVRVVRHR”: the protein production result was “failed”.
In the case of “MSVFMDLNIINSSDKNRLKHIIETAAHLGYSTVAINYVVEPLQKKQEIPNPQSISDLFDKFPVVQGKSSPIKVLNRLTIVASDASHFRPTNEYKKFDLVAVYPKTEKLFHAACMTFDVDIICIAVTEKQPFHFKRAPVNGAIDRGIFFETCYAAAIRDSITRRYTIANAICLMEICKGKNVIVSSGAERQLELRGPYDIANLGLVFSLSEGDAKAAVSTNCRSVLLHGETRATASGVIHTMKKPQILQKEEEETPAAKKARTELA” it was “failed”; in that of “MIKDCANRYFLSFVVEVEPNTTIANNQSIGIDLGLKTFAVMSNGEKALSPDYSKHDRKIRKLQKKLARQQKDSKRRNNTRVKIAKLHNQIADTRKDFLHKLSTKIINDNQVIVLEDLNVSGMVKNSRLSRVISLQGWREFRNLCEAKSEKFSRDFRVIDRWQPTSQICSCCGFRWGKIDLSVRSILCLSCGTEQERDENASRNIEMVGMGHRHDLKRAGSDCQTTSVASYCELSRITEVESR”, “failed”.
For “MQSRSKSDMKPIRKEILNPGNAYIELTPGTRRLTPHDIGLFQVKFHFQTRRAGDSRIIDDSRKMEKPMELVLGKKFKLEVWELIVQQMSLNEVAKFTVHKSLCAQYPFISKTLRDIGKKPEERRHCCGMTLQNEGIGYTDLDELLQNPSDLEFIIELFSIELPEQYEKERWQMSDDEKMLATSTLRERGNNFYKASRFTEAETCYREAVGIVEQLMLKEKPHDEEWQELAAIKTPLLLNYAQCRLIAGDFYAVIEHCNEVLTLDPRNVKALFRRAKAHAGAWNPAQARRDFLDALALDASLKSTVSKELKSIEDQQQARNVQDRIHMQKLF” the value was “failed”.
